Results: US20260356955 (published 2026)
Substitutions are numbered along the chain they refer to. Where two headings read alike, the source gives them in different places. One block for each binder: values may come before it.

Experiments:
[1] = molecular target: human KLRB1 ECD (human); test: SPR
[2] = molecular target: human KLRB1 on CHO-K1 (human); test: competition, CLEC2D, FACS
[3] = molecular target: human KLRB1 ECD (human); test: SPR; remark: listed apart in the source
[4] = molecular target: T1, cynomolgus KLRB1 ECD (cynomolgus); test: SPR
T1 chain: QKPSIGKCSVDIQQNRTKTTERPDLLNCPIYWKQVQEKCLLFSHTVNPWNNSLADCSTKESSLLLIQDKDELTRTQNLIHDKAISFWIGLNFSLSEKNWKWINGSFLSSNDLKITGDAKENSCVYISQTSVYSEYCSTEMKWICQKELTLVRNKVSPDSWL

[5] = molecular target: T2, cynomolgus KLRB1 on CHO-K1 (cynomolgus); test: FACS
T2 chain: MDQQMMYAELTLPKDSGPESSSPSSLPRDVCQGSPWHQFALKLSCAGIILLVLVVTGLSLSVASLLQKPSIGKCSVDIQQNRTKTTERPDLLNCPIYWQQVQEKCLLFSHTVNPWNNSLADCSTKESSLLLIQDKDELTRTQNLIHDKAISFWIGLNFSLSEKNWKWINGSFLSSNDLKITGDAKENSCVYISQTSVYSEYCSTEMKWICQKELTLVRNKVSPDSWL

[6] = molecular target: human KLRB1 on CHO-K1 (human); test: FACS
[7] = molecular target: human KLRB1 ECD (human); test: ELISA
[8] = molecular target: T1, cynomolgus KLRB1 ECD; test: ELISA
[9] = molecular target: human KLRB1 ECD (human); test: ELISA; remark: listed apart in the source
[10] = molecular target: human KLRB1 ECD (human); test: SPR; remark: listed apart in the source
[11] = molecular target: human KLRB1 ECD (human); test: ELISA; remark: listed apart in the source
[12] = molecular target: T2, cynomolgus KLRB1 on CHO-K1; test: FACS
[13] = molecular target: human KLRB1 on CHO-K1 (human); test: FACS; remark: listed apart in the source
[14] = molecular target: human KLRB1 on CHO-K1 (human); test: FACS; remark: listed apart in the source
[15] = molecular target: T1, cynomolgus KLRB1 ECD; test: ELISA
[16] = molecular target: human KLRB1 ECD (human); test: SPR; remark: listed apart in the source
[17] = molecular target: human KLRB1 ECD (human); test: SPR; remark: listed apart in the source
[18] = molecular target: human KLRB1 ECD (human); test: SPR; remark: listed apart in the source
[19] = molecular target: T2, cynomolgus KLRB1 on CHO-K1; test: FACS
[20] = molecular target: human KLRB1 on CHO-K1 (human); test: competition, CLEC2D, FACS; remark: listed apart in the source
[21] = molecular target: T1, cynomolgus KLRB1 ECD; test: ELISA

Chain of human KLRB1 ECD (human) (chain, as listed by the source): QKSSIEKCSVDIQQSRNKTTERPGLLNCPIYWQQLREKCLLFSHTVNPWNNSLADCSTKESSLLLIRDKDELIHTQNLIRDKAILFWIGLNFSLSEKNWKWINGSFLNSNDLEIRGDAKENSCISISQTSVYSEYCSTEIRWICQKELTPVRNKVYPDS
Chain of human KLRB1 on CHO-K1 (human) (chain, as listed by the source): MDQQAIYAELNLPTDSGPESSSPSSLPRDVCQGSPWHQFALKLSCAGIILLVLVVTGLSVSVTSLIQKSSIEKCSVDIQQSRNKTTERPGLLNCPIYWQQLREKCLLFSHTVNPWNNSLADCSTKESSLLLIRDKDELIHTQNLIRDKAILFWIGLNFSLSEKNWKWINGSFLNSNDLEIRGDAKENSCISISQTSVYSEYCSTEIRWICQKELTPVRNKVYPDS

B1: 47A5H2 chimeric (antibody, V domains shown)
VH: QVQLQQPGAELVRPGASVKLSCKGSGYSFTGYWMHWVKQRPGQGLEWIGMIHPSDSETRLNQKFKDKATLTVDKSSSTTYMQLSSPTSEDSAVYYCASEGLRRGSFAYWGQGTLVTVSA
VL: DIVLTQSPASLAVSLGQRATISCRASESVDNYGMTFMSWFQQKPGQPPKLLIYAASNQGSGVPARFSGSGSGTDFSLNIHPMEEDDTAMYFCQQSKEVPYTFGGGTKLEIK
- Kd [1]: 0.306 nM
- IC50 [2]: 2.54 nM
- Kd [3]: 0.712 nM
- Kd [4]: 6.61 nM
- EC50 [5]: 2.59 nM
- EC50 [6]: 1.84 nM
- EC50 [7]: 0.0221 nM
- EC50 [8]: 0.0182 nM

B3: Hu22F10G3-2.3-NA (antibody, V domains shown)
VH: QVQLQESGPGLVKPSQTLSLTCTVSGYSLTSDFAWNWIRQHPGKGLEWMGDIRYSGSTDYNPSLKGRVTISRDTSKNQFSLKLSSVTAADTAVYYCARGGYYGYDEGYPMDYWGQGTLVTVSS
VL: DIVMTQSPDSLAVSLGERATISCRASESVDVYGNAFMHWYQQKPGQPPKLLIYLAFNLKSGVPDRFSGSGSGTDFTLTISSLQAEDVAVYYCQQNNEDPFTFGQGTKLEIK
- Kd [16]: 0.14 nM

B4: Hu22F10G3-2.3 (antibody, V domains shown)
VH: B3 VH
VL: B3 VL with A35S
- Kd [17]: 0.103 nM
- Kd [16]: 0.0688 nM
- Kd [18]: 0.0966 nM

B5: Hu22F10G3-2.3-QS (antibody, V domains shown)
VH: B3 VH
VL: B3 VL with N34Q, A35S
- Kd [16]: 0.653 nM

Next, values leading:

- EC50 [9]: 0.0201 nM
- Kd [10]: 0.693 nM
- EC50 [11]: 0.033 nM
- binding result [12]: no binding
- EC50 [13]: 5.45 nM
- EC50 [14]: 6.81 nM
- binding result [15]: no binding
B2: Hu50A8F2-04 (antibody, V domains shown)
VH: QVQLVQSGAEVKKPGASVKVSCKASGYTFIDYYINWVRQAPGQGLEWMGWIFPGSGHTKYNENFKGRVTMTRDTSTSTVYMELSSLRSEDTAVYYCARGDRSALGYFDYWGQGTTVTVSS
VL: DIQLTQSPSSLSASVGDRVTITCTASSSVSSTYLHWYQQKPGKSPKLLIYSTSNLASGVPSRFSGSGSGTDYTLTISSLQPEDAATYYCHQYHRSPLTFGQGTKLEIK

- IC50 [2]: 2.32 nM
- Kd [3]: 1.04 nM
- Kd [4]: 3.25 nM
- EC50 [5]: 10.8 nM
- EC50 [6]: 2.35 nM
- EC50 [7]: 0.0134 nM
- EC50 [8]: 0.0108 nM
B6: Hu47A5H2-07 (antibody, V domains shown)
VH: QVQLVQSGAEVKKPGASVKVSCKASGYSFTGYWMHWVRQAPGQGLEWMGMIHPSDSETRLNQKFKDRVTMTVDTSTSTVYMELSSLRSEDTAVYYCASEGLRRGSFAYWGQGTLVTVSS
VL: DIVLTQSPDSLAVSLGERATINCRASESVDNYGMTFMSWFQQKPGQPPKLLIYAASNQGSGVPDRFSGSGSGTDFTLTISSLQAEDVAVYYCQQSKEVPYTFGQGTKLEIK

- EC50 [19]: 14.9 nM
- IC50 [20]: 3.61 nM
- IC50 [2]: 1.97 nM
- EC50 [11]: 0.016 nM
- EC50 [21]: 0.024 nM
- Kd [3]: 0.639 nM
- Kd [4]: 1.94 nM
- EC50 [5]: ~1.77 nM
- EC50 [6]: 1.6 nM
- EC50 [14]: 3.01 nM
- EC50 [7]: 0.0238 nM
- EC50 [8]: 0.01 nM
B7: Hu47A5H2-11 (antibody, V domains shown)
VH: B6 VH with T74K
VL: B6 VL
